{"source": "the DeepSol protein solubility set"}
{"experiment": "soluble on expression in E. coli; label from the status in PepcDB or PDB records"}
{"sequence": "MKIGYLGPRGTFTEMAVQTLFDDKNVLKPYRTIPDCMDSVANGDMDAAVVPVENAIEGSVNVTLDYLIHKQRLEIVADIVVPISQHFLVHPNQRDNEIKKILSHPHAVAQCHEFLRSSYPGVEIEYMTSTAAAAQWVADHPNEPVAAIANEQAATSYQLDMLEKDIHDYDENRTRFAVLAKGKLSLPPYQVEPYTKKTTMMVTLSSDFSGALHQVLSAFAWRKLNLTKIESRPMKTGLGNYFFIIDVDCEADDVLIPGVMQELEALGCGVELLGSYPCFFHTSLKLTEASSV", "soluble on expression in E. coli": "not soluble"}
{"sequence": "MKIIGFACQWCAYQAADLAGSLKMKYPESIRLLRVPCSGRVNAEFILKALLSGADGVFVAGCPISECHYRSGNRIAKTKVALLKRLLPEFGLESGRVEFLQVSSADARKFVEFAKEFDERIRKLGPNPLRRDER", "soluble on expression in E. coli": "not soluble"}
{"sequence": "MKIIGSMGKKTENLKIDAKKSFLKRIAKNVKVSEGERAVEDILRCIYRNQPISTKKIGQYVKLPLPIVSKVRSILERESLLKRDDKGAVLSKKGIDFVENELGLKLKSDMKCPVCSGRNIVFDEKFEKILKKHKTYAKLRPQVNTMIDQSFATPETATARAAIMADRGDLEGKRVLFVGDDDLASIPTAMTGLCSEVVVLDIDDRLLKLISEVSKKENLNIRTVKWDFKNELPSEFVNKFDTIFTDPPYTLNGAVLFMSRGIEALGDNGILYLAFSHKPVEEYIELQKSINNMNFLIYELIPGFNFYEGTEIIGNTTFLARLVGKNLKKIEVNSEKIYTGELKPTLRYYQCMNCKKIHEVGNKVKRIEDLTCECGGKKFSMIKRAKVKQK", "soluble on expression in E. coli": "not soluble"}
{"sequence": "MKIIITGEPGVGKTTLVKKIVERLGKRAIGFWTEEVRDPETKKRTGFRIITTEGKKKIFSSKFFTSKKLVGSYGVNVQYFEELAIPILERAYREAKKDRRKVIIIDEIGKMELFSKKFRDLVRQIMHDPNVNVVATIPIRDVHPLVKEIRRLPGAVLIELTPENRDVILEDILSLLERLEHHHHHH", "soluble on expression in E. coli": "not soluble"}
{"sequence": "MKILLYFEGEKILAKSGIGRALDHQKRALSEVGIEYTLDADCSDYDILHINTYGVNSHRMVRKARKLGKKVIYHAHSTEEDFRNSFIGSNQLAPLVKKYLISLYSKADHLITPTPYSKTLLEGYGIKVPISAISNGIDLSRFYPSEEKEQKFREYFKIDEEKKVIICVGLFFERKGITDFIEVARQLPEYQFIWFGDTPMYSIPKNIRQLVKEDHPENVIFPGYIKGDVIEGAYAAANLFFFPSREETEGIVVLEALASQQQVLVRDIPVYQGWLVANENCYMGHSIEEFKKYIEGLLEGKIPSTREAGYQVAEQRSIKQIGYELKEVYETVLS", "soluble on expression in E. coli": "not soluble"}
{"sequence": "MKILPLALFIIPFLAGCGANNTPPQTPIPGEKTSAKLRTLETGAAAIQSRPPVDAISTYLDGFHFYSGDKNGQMEAHHYVTVLNEDVMQAVIYDGNTKNARLMGVEYIISERLFKTLPPEEKKLWHSHQYEVKSGSLVAPGLPQVADKALMSKIVNTYGKTWHTWHTDRDKTLPMGIPALMMGFTGDGQLDPALLADRDRRLGIDTQAIKRERQDLPEHPVVKGANAWEQGEVIQLQRVQGSGEHGRGDTAHFGTSEQSRQ", "soluble on expression in E. coli": "not soluble"}
{"sequence": "MKILWIDLNSSYAHSSLALPALHAQIMTDPSIEWEIVSATINENTGMIVDEIYRHRPDILAATTWLFNHEQLMHVASRVKALLPEACLVLGGPEFLGDNEEFLRKNPFVDCVFRGEGEEVFPQWLTCWNHPEQWHTVPGLCYLTPNKEYKDNGIARVLNFAGLVPPEQSRFFNWSKPFVQLETTRGCFNTCAFCVSGGEKPVRTLSIESIRERLQLIHAHGIKNVRVLDRTFNYNPRRAKELLRLFLEFHPDIRFHLEIHPALLSEELKEELSLLPKGLLHLEAGIQSLREPVLEKSRRMGKLSDALDGLRFLCALPNMETHADLIAGLPLYHLHEIFEDVRTLAGYAAGEIQLESLKLLPGTEMRRRAEELGIKYSPLPPYEVLQTHEISVSELQTARQLSRLLDGFYNTPAWQALTRELILNDEQFLHRFLAYLTKANLIDQPMSLEKRGLILYEFCKQNYPEYQIQAAIAWIEAGMSLKKLPAEKVWTKRQIPPATWNIIYGEYKESLRLCFLPADEKGEHGYWFGFESEIQKASPVFKART", "soluble on expression in E. coli": "not soluble"}
{"sequence": "MKIMIIGATGMAGQALVTTALNRGHQVVAVARSAEKLATLPSNPNLTSIVRDAFNLTTTDLSAVDAVVDAFATAPDHAYLHVDLATHLISQLRETTTPRVAFILGAGSLTTGDDAHLFVHDLEQDPHAASFISVPQNQLKELTFLRDVDNVNWFGVSPAADFHPGEAQPALLGTDTLLFNDQQQSGTSAGTMAVAILDELENPKHHQTRFTVADKLEHHHHHH", "soluble on expression in E. coli": "soluble"}
{"sequence": "MKIQCDVCEKAPATLICCADEAALCAKCDVEVHAANKLASKHQRLFLDSLSTKFPPCDICLEKAAFIFCVEDRALLCRDCDEATHAPNTRSANHQRFLATGIRVALSSTSCNQEVEKNHFDPSNQQSLSKPPTQQPAAPSPLWATDEFFSYSDLDCSNKKEQLDLGELDWLAEMGLFGDQPDQEALPVAEVPELSFSHLAHAHSYNRPMKSNVPNKKQRLEYRYDDEEEHFLVPDLG", "soluble on expression in E. coli": "not soluble"}
{"sequence": "MKKALLYRRGGLGDTLLTFPILEILKRRGYETIAVGNTDYFSIAKEVGYADGVYSFIPEEEFDLKVIISFEGNVKPFPEKREWIVKHYLNSLGLGEEFSTKLPIKPVQDSPLKGKVVIHPSSGSKKKNPPLEVFLKLKDFLEERGKEVVFLLGEAEEHLREVLSPHFLSLSPLEIAKHLKTAGFYVGLDSGISHLASYLGVPSFIVYGPTDPLVWRPIGDKVFQISLNLDCSPCFPNVCEERMCLDTEEVLRKTKETLLRYWNSL", "soluble on expression in E. coli": "not soluble"}
{"sequence": "MKKALSLLTVSALSIGMLSACGPKDSGKKEESKAKKDYDLLVWEDDKKGVGLEPAVKSFEEKYKVKVKVVEMQMTDQVKKLRLDGPAGTGPDVVTLPHDQIGNAVTEGLLSEVKADDAVKSKFTDSSIEAQTYNGKLYGLPKAIETPVFIYNKKLMPKAPETMDELFNFSKEFTKDGKYGFLALGDNFYFANAFMAGMGGYVFGEKDGKPNASDVGLNNSGAVQGAEYLQKWYKEKLFPKGIIGESGGPAADGLFNEGKAASIMNGPWAFQAMEKNGIDYGVAPMPKLPNGQPLKTFVGVKGWHVTSFSKQNDLATKFTEWVTNEENAKIRFEKTKEIPPVKAVMEDPIIKDNEAAKAVATQSENGIPMPNIPEMQEVWKPAGDALQLVVTDKEAPKAALDSAVKQIKGNIEANHSKQK", "soluble on expression in E. coli": "not soluble"}
{"sequence": "MKKDVTQKQTIIKFENGHLYTASDSCITEMPLTIKVNEFKFATIICSRNYLEELTLGFLASEGIFLKRNDLQSIHIDESKGFAHVKLTQSVGHHFEHPTKRVLASCCGKSRAFYFQNDAAIAKTSMTTILEHHHHHH", "soluble on expression in E. coli": "not soluble"}
{"sequence": "MKKERVDVLAFNQGLFETREKAKRSVMAGLVYNDKNERLDKPGEKISVETPLHTKGQVMPYVSRGGLKLEKALNVFAINVQGKTMLDIGSSTGGFTDVALQNGARLSYALDVGYNQLAWKIRQDERVVVMERTNFRYSKPEDFTEGVPDIATIDVSFISLRLILPPLHDILKKGGSVVALIKPQFEAGKEFVGKKGIVRDPETHQMVVEEITRFAMNNGYDVKNLDFSPITGGEGNIEFLAHLVSVEGEGSYQAPESIEEVVAHAHQKLAE", "soluble on expression in E. coli": "not soluble"}
{"sequence": "MKKFDVAIVGGGLAGLTASIYLAKVGRKVIVLEKSSQFGGRGMTTNKNGICMNLGAHALYRGGAAFITFNELGMTLPGGIPSTKAHGIWKGDIFTIPTDFRSILSTPLLSWSAKVQFSRLMIRLGNLDVGEVPKMSLTTWAENEIKDPMVRNIFYALCRTTTYTFAPTIQLASSVLKQIQLSIKEGVLYVDGGWETIITKLRAIANDIGVQFLAKKHVVEIEHSEGKQRIHCVDDEVFEVGTVIVTTPPKEACKIIKGAEGTSLHKWSEQSVPVTVGALDIGLRQLPNPTHQFVLGLDQPIFFTNQSRAAKLSEDGSIAVSLIKYHNPVLEMNHIHEDKEQLESTMELLHSNWKREVVAQQYLPKITVVHDFPHIDRVEKPGPNIPEMPGVYVAGDWAGHDEILADAAVASGKRAALHILKQYESEAVHHGNGAVILEHHHHHH", "soluble on expression in E. coli": "soluble"}
{"sequence": "MKKIAVFADVQNLYYTVRQAYGCHFNYAALWADISKRGEIVHAFAYAIDRGDSKQQQFQQILRNLGFTVRLKPYIQRSDGSAKGEWDVGITIDIMDFAPQVDEVVLASGDGDFDMLLDRVISKHGVEAVAYGVPGLTANSLIRAASRYVPIEGALLLK", "soluble on expression in E. coli": "not soluble"}
{"sequence": "MKKIIFTFLILGNVYNFAAQKTLRTVEKCRVTSKGTTKDGKRFANCISLQSGKTFNFTGLVDQTYYKFSKGTIFKVYFYGNGNRNLTLETFDYIR", "soluble on expression in E. coli": "not soluble"}
{"sequence": "MKKIPLGTTDITLSRMGLGTWAIGGGPAWNGDLDRQICIDTILEAHRCGINLIDTAPGYNFGNSEVIVGQALKKLPREQVVVETKCGIVWERKGSLFNKVGDRQLYKNLSPESIREEVAASLQRLGIDYIDIYMTHWQSVPPFFTPIAETVAVLNELKSEGKIRAIGAANVDADHIREYLQYGELDIIQAKYSILDRAMENELLPLCRDNGIVVQVYSPLEQGLLTGTITRDYVPGGARANKVWFQRENMLKVIDMLEQWQPLCARYQCTIPTLALAWILKQSDLISILSGATAPEQVRENVAALNINLSDADATLMREMAEALER", "soluble on expression in E. coli": "soluble"}
{"sequence": "MKKPNGTNGASSSLEPPPSTFQPLCHPLVEEVSKEVDGYFLQHWNFPNEKARKKFVAAGFSRVTCLYFPKALDDRIHFACRLLTVLFLIDDLLEYMSFEEGSAYNEKLIPISRGDVLPDRSIPVEYIIYDLWESMRAHDREMADEILEPVFLFMRAQTDRTRARPMGLGGYLEYRERDVGKELLAALMRFSMGLKLSPSELQRVREIDANCSKHLSVVNDIYSYEKELYTSKTAHSEGGILCTSVQILAQEADVTAEAAKRVLFVMCREWELRHQLLVARLSAEGLETPGLAAYVEGLEYQMSGNELWSQTTLRYSVVVD", "soluble on expression in E. coli": "soluble"}
{"sequence": "MKKRRFPRVNAVLSRWGVALSDARETQAEQARLADFEARGGLEAPAYALSPGMRTFDLAPLVEEYAQHGEALAALHDPARNQTGYRSGNGYYDTPDAEALYLMIRRYQPRRVIEVGCGNSTRITRQAALDGGLETEITAIDPWPRADIAGVVDRFEQARLEEVDPAVFAALEADDVLFIDSSHQVRMSNDVAHLFCRIIPALAPGVVIHVHDVFLPYEYPKRFFYDCPSWAEQYVLHALIQSGGYDILWPGYYLQRARPDAVEALPFLGQGRAQSFWIRKL", "soluble on expression in E. coli": "not soluble"}
{"sequence": "MKKTDTLPATLSALIQEYSIAEGIQMAEQQVRENPAKALCRHSLFQLLCVAGDWSRALHQLQLCARMEANYTQEARLYRELVRCEMFRHTVFQGEQRPGFLLPQPVWVESLLAALACHDDTGEVDKHRNTALEAITDTGGQWNGGAFDWASDSDSRLGPVLELVTGGVYIWLPFSQIRSLESPQPTRLTDLLWKPVNITLVNGDTHGAWLFTRYSGSESASDALRLCRETAWQDGPGETTVRALGQKVWLTSHGDISLLDMAHCTFHAQENDGA", "soluble on expression in E. coli": "not soluble"}
